Patent US20240391954A1, “MC4R AGONIST PEPTIDES” (The Regents of the University of Michigan, priority 2021, published 2024)
Where two headings read alike, the source gives them in different places. Starred links: 1 amine or outer side, 2 acyl side, 3 side chain; linkers in the order of their positions; H or OH if unused. Positions of bridges follow the written chain, without caps; N, C: chain ends. Non-standard residues stand in square brackets, D forms with d. Residues, ends and D or L forms follow the SMILES beside them. dTyr(O-Me) = O-methyl-D-tyrosine, COc1ccc(C[C@@H](N[*:1])C(=O)[*:2])cc1; dPhe(4-Br) = N[C@H](Cc1ccc(Br)cc1)C(=O)O; dPhe(4-F) = N[C@H](Cc1ccc(F)cc1)C(=O)O; Aib = CC(C)(N)C(=O)O

B1: CTX-1246 (peptide)
peptide: Ac-RC[Aib]R[dPhe(4-Br)]R[dW]C-NH2
modifications: disulfide 2-8
SMILES: CC(=O)N[C@@H](CCCNC(=N)N)C(=O)N[C@H]1CSSC[C@@H](C(N)=O)NC(=O)[C@@H](Cc2c[nH]c3ccccc23)NC(=O)[C@H](CCCNC(=N)N)NC(=O)[C@@H](Cc2ccc(Br)cc2)NC(=O)[C@H](CCCNC(=N)N)NC(=O)C(C)(C)NC1=O
B2: CTX-1238 (peptide)
peptide: Ac-RC[dA]R[dTyr(O-Me)]R[dW]C-NH2
modifications: disulfide 2-8
SMILES: COc1ccc(C[C@H]2NC(=O)[C@H](CCCNC(=N)N)NC(=O)[C@@H](C)NC(=O)[C@@H](NC(=O)[C@H](CCCNC(=N)N)NC(C)=O)CSSC[C@@H](C(N)=O)NC(=O)[C@@H](Cc3c[nH]c4ccccc34)NC(=O)[C@H](CCCNC(=N)N)NC2=O)cc1
B3: CTX-1258 (peptide)
peptide: Ac-RC[dA]R[dPhe(4-Br)]RFC-NH2
modifications: disulfide 2-8
SMILES: CC(=O)N[C@@H](CCCNC(=N)N)C(=O)N[C@H]1CSSC[C@@H](C(N)=O)NC(=O)[C@H](Cc2ccccc2)NC(=O)[C@H](CCCNC(=N)N)NC(=O)[C@@H](Cc2ccc(Br)cc2)NC(=O)[C@H](CCCNC(=N)N)NC(=O)[C@@H](C)NC1=O

Key:
human MC3R [1] = target: T1, human MC3R (Homo sapiens, UniProt P41968); assay: split-luciferase cAMP sensor assay, antagonist mode in presence of EC90 α-MSH (measurement window 2), hMC3R; assay type: cell-based; conditions: agonist curves and antagonist curves in presence of EC80 to EC90 α-MSH
T1 construct: expressed in transfected cells; host or cells: HEK-293 cells stably expressing the GScAMP22F split-luciferase cAMP sensor (parent reporter line from Promega); MC3R clone generated in-house, G418 selection
Procedure: FIG. 2. […] Concentration-response agonist curves for CTX-2205 and CTX-1214 at the human MC3R (blue) and human MC4R (red) were determined by a split-luciferase cAMP sensor dynamic assay in HEK-293 cells stably expressing the hMC3R or hMC4R and the GScAMP22F CAMP sensor. The antagonist curves were determined in the presence of an EC80 to EC90 concentration of α-MSH. Each data point represents the mean±SEM of two experiments with three replicates each per experiment. Data is normalized to the ECmax of α-MSH.
The assay for the determination of the cAMP response in live cells was described previously. (Yu et al., 2020, Science 368, 428-433; incorporated by reference in its entirety). […] Intracellular cAMP levels were measured using an FDSS 7000EX Functional Drug Screening System (Hamamatsu Photonics, Hamamatsu, Japan) in the Center for Chemical Genomics at the Life Sciences Institute. This instrument allowed the in-line addition of test-peptides and receptor agonists while simultaneously acquiring the luminescence signal from live cells. […]
With this set up it was possible to evaluate the direct effect of the test-peptides on the MC3R and MC4R cell lines during measurement window 1, while the antagonist profile in the presence of EC90 α-MSH was determined on measurement window 2. […]

human MC4R = target: T2, human MC4R (Homo sapiens, UniProt P32245); assay: split-luciferase cAMP sensor assay, agonist mode (measurement window 1), hMC4R; assay type: cell-based; conditions: for Emax: read-out: MC4R cAMP % max activation
T2 construct: host or cells: HEK-293 cells stably expressing the GScAMP22F split-luciferase cAMP sensor and hMC4R, G418 selection
Summary of the method: (§1)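 EC50 values come from a four-parameter variable-slope fit of luminescence in measurement window 1, capturing direct peptide effects on receptor-expressing cells with a cAMP22f luciferase sensor. Cells were preloaded with 4% D-luciferin, serum-free medium; 20 μM forskolin normalized for cell number and transducer efficiency.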

human MC3R [2] = target: T1, human MC3R; assay: split-luciferase cAMP sensor assay, agonist mode (measurement window 1), hMC3R; assay type: cell-based; conditions: agonist mode, hMC3R stable cell line; for Emax: read-out: MC3R cAMP % max activation
Summary of the method: as §1

plasma protein [3] = assay: plasma ultrafiltration (Centrifree), LC-MS/MS; peptide 1.0 uM
plasma protein [4] = assay: plasma ultrafiltration (Centrifree), LC-MS/MS; peptide 0.1 uM
human MC4R receptor [5] = target: T3, human MC4R receptor (human, UniProt P32245 1-332); assay: cell-based or functional assay
plasma protein [6] = assay: plasma ultrafiltration (Centrifree), LC-MS/MS; peptide 10.0 uM
human MC3R [7] = target: human MC3R (human, UniProt P41968 1-323); assay: cell-based or functional assay
human MC4R receptor [8] = target: T3, human MC4R receptor; assay: cell-based or functional assay; remark: listed apart in the source
human MC4R receptor [9] = target: T3, human MC4R receptor; assay: cell-based or functional assay; remark: listed apart in the source
[10] = agonist mode, hMC4R stable cell line

T3 sequence (P32245 whole entry): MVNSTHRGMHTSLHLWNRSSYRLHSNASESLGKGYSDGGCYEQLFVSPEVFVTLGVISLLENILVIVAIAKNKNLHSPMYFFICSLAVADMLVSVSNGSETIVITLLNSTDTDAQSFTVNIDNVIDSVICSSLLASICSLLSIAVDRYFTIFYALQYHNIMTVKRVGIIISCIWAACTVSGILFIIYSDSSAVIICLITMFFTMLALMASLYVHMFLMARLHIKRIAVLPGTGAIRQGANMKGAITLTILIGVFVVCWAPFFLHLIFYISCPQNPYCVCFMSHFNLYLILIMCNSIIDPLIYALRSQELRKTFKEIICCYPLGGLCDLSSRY
T2 sequence (P32245 whole entry): as above
T1 sequence (P41968 whole entry): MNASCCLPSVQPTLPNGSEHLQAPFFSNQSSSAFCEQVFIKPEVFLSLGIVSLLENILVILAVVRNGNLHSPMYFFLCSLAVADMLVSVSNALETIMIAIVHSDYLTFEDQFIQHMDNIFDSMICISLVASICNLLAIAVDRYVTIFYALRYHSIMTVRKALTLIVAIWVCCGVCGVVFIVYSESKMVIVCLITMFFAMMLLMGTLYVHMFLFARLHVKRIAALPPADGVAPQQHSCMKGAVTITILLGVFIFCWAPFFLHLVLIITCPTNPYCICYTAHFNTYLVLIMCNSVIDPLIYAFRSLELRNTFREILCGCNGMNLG
human MC3R (human, UniProt P41968 1-323), sequence (P41968 whole entry): as above

Row | Molecule | pharmacological properties at hMC4R and hMC3R (human MC3R [1]) | MC4R selectivity vs MC1R (human MC4R) | MC4R selectivity vs MC3R (human MC4R) | Emax (human MC4R; [10]) [%] | Emax (human MC3R [2]) [%] | EC50 (human MC4R; agonist mode, hMC4R stable cell line, read-out: MC4R cAMP EC50) [nM] | EC50 (human MC3R [2]; read-out: MC3R cAMP EC50) [nM] | Protein Binding (%) (plasma protein [3]) | Protein Binding (%) (plasma protein [4]) | MC4R selectivity vs MC1R (human MC4R receptor [5]) | MC4R selectivity vs MC3R (human MC4R receptor [5]) | Protein Binding (%) (plasma protein [6]) | % max activation (human MC3R [7]) [%] | cAMP EC50 (human MC3R [7]) [nM] | % max activation (human MC4R receptor [8]) [%] | cAMP EC50 (human MC4R receptor [8]) [nM] | MC4R selectivity vs MC1R (human MC4R receptor [9]) | MC4R selectivity vs MC3R (human MC4R receptor [9])
1 | CC(=O)N[C@@H](CCCNC(=N)N)C(=O)N[C@H]1CSSC[C@@H](C(N)=O)NC(=O)[C@H](Cc2c[nH]c3ccccc23)NC(=O)[C@H](CCCNC(=N)N)NC(=O)[C@@H](Cc2ccc(Br)cc2)NC(=O)[C@H](CCCNC(=N)N)NC(=O)[C@@H](C)NC1=O [CTX-2205, Arg-cyclo(Cys-D-Ala-Arg-D-Phe(4-Br)-Arg-Trp-Cys)] (Ac-RC[dA]R[dPhe(4-Br)]RWC-NH2; disulfide 2-8) | dual MC4R agonist, MC3R antagonist properties | 0.2 | 2.12 | 88 | 13 | – | – | – | – | – | – | – | – | – | – | – | – | –
2 | CC(=O)N[C@@H](CCCNC(=N)N)C(=O)N[C@H]1CSSC[C@@H](C(N)=O)NC(=O)[C@@H](Cc2c[nH]c3ccccc23)NC(=O)[C@H](CCCNC(=N)N)NC(=O)[C@@H](Cc2ccc(Br)cc2)NC(=O)[C@H](CCCNC(=N)N)NC(=O)[C@@H](C)NC1=O [CTX-1214, Arg-cyclo(Cys-D-Ala-Arg-D-Phe(4-Br)-Arg-D-Trp-Cys)] (Ac-RC[dA]R[dPhe(4-Br)]R[dW]C-NH2; disulfide 2-8 (inferred)) | dual MC4R agonist, MC3R antagonist properties | – | 0.2 | 74 | 15 | 2.6 | 4.1 | – | – | – | – | – | – | – | – | – | – | –
3 | CTX-1200 (setmelanotide) (peptide) | – | – | – | – | – | – | – | 57 | 43 | 0.69 | 4.09 | 61 | – | – | – | – | – | –
4 | B1 | – | – | – | – | – | – | – | 44 | 73 | – | – | 43 | 21 | – | – | – | – | –
5 | B2 | – | – | – | – | – | – | – | 47 | 53 | – | – | 41 | 21 | 3 | 79 | 6.2 | 0.44 | 0.49
6 | B3 | – | – | – | – | – | – | – | 50 | 47 | – | – | 50 | 36 | 7.4 | 92 | 2.4 | 0.53 | 3.04
7 | Ac-RC[dA]R[dPhe(4-F)]R[dW]C-NH2 (disulfide 2-8) [CTX-1236] | – | – | – | – | – | – | – | 49 | 45 | – | – | 51 | 66 | 2.6 | 97 | 1.9 | 2.01 | 1.36
